# Assay results taken from article PMC11286949, “Structural basis of tRNA recognition by the widespread OB fold”.
# Where a chain is given by its changes, count along the chain named.
# T1: Arc1p dNdM1 (Saccharomyces cerevisiae, UniProt P46672 166-376)
# T1 sequence: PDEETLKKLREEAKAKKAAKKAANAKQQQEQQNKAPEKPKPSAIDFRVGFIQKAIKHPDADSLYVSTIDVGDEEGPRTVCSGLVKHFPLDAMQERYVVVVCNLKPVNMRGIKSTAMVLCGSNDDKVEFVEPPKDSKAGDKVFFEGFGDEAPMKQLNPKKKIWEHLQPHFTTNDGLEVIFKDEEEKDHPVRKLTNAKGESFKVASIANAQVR
# T2: Arc1p dN S278A/M281A (Saccharomyces cerevisiae, UniProt P46672 132-376, S278A;M281A;del1-131)
# T2 sequence: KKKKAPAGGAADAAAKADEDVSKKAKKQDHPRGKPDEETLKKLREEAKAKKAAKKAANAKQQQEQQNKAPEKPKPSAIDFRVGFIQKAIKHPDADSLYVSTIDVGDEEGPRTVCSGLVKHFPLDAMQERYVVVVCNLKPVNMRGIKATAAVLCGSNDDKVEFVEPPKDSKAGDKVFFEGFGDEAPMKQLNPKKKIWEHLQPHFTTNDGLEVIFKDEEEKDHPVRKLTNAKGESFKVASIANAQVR
# T3: Arc1p dN M281A (Saccharomyces cerevisiae, UniProt P46672 132-376, M281A;del1-131)
# T3 sequence: T2 sequence with A147S
# T4: Arc1p (Saccharomyces cerevisiae, UniProt P46672 1-376)
# T4 sequence: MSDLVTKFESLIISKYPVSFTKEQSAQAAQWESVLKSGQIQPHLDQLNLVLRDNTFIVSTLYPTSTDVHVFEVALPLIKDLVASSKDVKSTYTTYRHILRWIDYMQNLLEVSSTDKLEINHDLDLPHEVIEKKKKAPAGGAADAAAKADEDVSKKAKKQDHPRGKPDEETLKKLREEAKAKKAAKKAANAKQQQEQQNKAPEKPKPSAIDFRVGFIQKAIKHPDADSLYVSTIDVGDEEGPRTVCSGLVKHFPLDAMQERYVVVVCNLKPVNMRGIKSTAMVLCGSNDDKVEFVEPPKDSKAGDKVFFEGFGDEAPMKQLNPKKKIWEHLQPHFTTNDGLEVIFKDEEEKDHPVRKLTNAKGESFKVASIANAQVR
# B1: tRNAIle WT (structured_RNA)
# RNA: AGGCUUGUAGCUCAGGUGGUUAGAGCGCACCCCUGAUAAGGGUGAGGUCGGUGGUUCAAGUCCACUCAGGCCUACCA
# Legend:
# Assay in all cases: ITC; ITC (Arc1p): 25 mM Tris-HCl pH 7.4, 150 mM NaCl, 2 mM MgCl2, 25 °C. FP and competition FP: 25 mM Tris-HCl pH 7.5, 150 mM NaCl (Arc1p) or 50 mM NaCl (Trbp111), 2 mM MgCl2, room temperature
# Conditions in all cases: protein: recombinant; tags: His-MBP removed; tRNA fold
# Arc1p dNdM1 = biological target: T1, Arc1p dNdM1
# Arc1p dN S278A/M281A = biological target: T2, Arc1p dN S278A/M281A
# Arc1p dN M281A = biological target: T3, Arc1p dN M281A
# Arc1p = biological target: T4, Arc1p
binder,measurement,setting,value
B1,Kd,Arc1p dNdM1,2550 ± 456 nM
same,Kd,Arc1p dN S278A/M281A,1430 ± 379 nM
same,Kd,Arc1p dN M281A,384 ± 48 nM
same,Kd,Arc1p,1280 ± 130 nM
